Reference: paper doi:10.1101/2020.03.19.999276 (bioRxiv, 2020)

B1: Δ1-688 hTRPA1 (hTRPA1 without its N-terminal ankyrin repeat domain) (domain or fragment, human, UniProt O75762 689-1119, looked up)
chain: MVQNNRIELLNHPVCKEYLLMKWLAYGFRAHMMNLGSYCLGLIPMTILVVNIKPGMAFNSTGIINETSDHSEILDTTNSYLIKTCMILVFLSSIFGYCKEAGQIFQQKRNYFMDISNVLEWIIYTTGIIFVLPLFVEIPAHLQWQCGAIAVYFYWMNFLLYLQRFENCGIFIVMLEVILKTLLRSTVVFIFLLLAFGLSFYILLNLQDPFSSPLLSIIQTFSMMLGDINYRESFLEPYLRNELAHPVLSFAQLVSFTIFVPIVLMNLLIGLAVGDIAEVQKHASLKRIAMQVELHTSLEKKLPLWFLRKVDQKSTIVYPNKPRSGGMLFHIFCFLFCTGEIRQEIPNADKSLEMEILKQKYRLKDLTFLLEKQHELIKLIIQKMEIISETEDDDSHCSFQDRFKKEQMEQRNSRWNTVLRAVKAKTHHLEP
modifications: Ni-NTA Atto647N on the N-terminal His-tag (labeled copies in FCS)
B2: purified human TRPA1 (hTRPA1) (natural protein, UniProt O75762 1-1119, looked up)
chain: MKRSLRKMWRPGEKKEPQGVVYEDVPDDTEDFKESLKVVFEGSAYGLQNFNKQKKLKRCDDMDTFFLHYAAAEGQIELMEKITRDSSLEVLHEMDDYGNTPLHCAVEKNQIESVKFLLSRGANPNLRNFNMMAPLHIAVQGMNNEVMKVLLEHRTIDVNLEGENGNTAVIIACTTNNSEALQILLKKGAKPCKSNKWGCFPIHQAAFSGSKECMEIILRFGEEHGYSRQLHINFMNNGKATPLHLAVQNGDLEMIKMCLDNGAQIDPVEKGRCTAIHFAATQGATEIVKLMISSYSGSVDIVNTTDGCHETMLHRASLFDHHELADYLISVGADINKIDSEGRSPLILATASASWNIVNLLLSKGAQVDIKDNFGRNFLHLTVQQPYGLKNLRPEFMQMQQIKELVMDEDNDGCTPLHYACRQGGPGSVNNLLGFNVSIHSKSKDKKSPLHFAASYGRINTCQRLLQDISDTRLLNEGDLHGMTPLHLAAKNGHDKVVQLLLKKGALFLSDHNGWTALHHASMGGYTQTMKVILDTNLKCTDRLDEDGNTALHFAAREGHAKAVALLLSHNADIVLNKQQASFLHLALHNKRKEVVLTIIRSKRWDECLKIFSHNSPGNKCPITEMIEYLPECMKVLLDFCMLHSTEDKSCRDYYIEYNFKYLQCPLEFTKKTPTQDVIYEPLTALNAMVQNNRIELLNHPVCKEYLLMKWLAYGFRAHMMNLGSYCLGLIPMTILVVNIKPGMAFNSTGIINETSDHSEILDTTNSYLIKTCMILVFLSSIFGYCKEAGQIFQQKRNYFMDISNVLEWIIYTTGIIFVLPLFVEIPAHLQWQCGAIAVYFYWMNFLLYLQRFENCGIFIVMLEVILKTLLRSTVVFIFLLLAFGLSFYILLNLQDPFSSPLLSIIQTFSMMLGDINYRESFLEPYLRNELAHPVLSFAQLVSFTIFVPIVLMNLLIGLAVGDIAEVQKHASLKRIAMQVELHTSLEKKLPLWFLRKVDQKSTIVYPNKPRSGGMLFHIFCFLFCTGEIRQEIPNADKSLEMEILKQKYRLKDLTFLLEKQHELIKLIIQKMEIISETEDDDSHCSFQDRFKKEQMEQRNSRWNTVLRAVKAKTHHLEP
modifications: Ni-NTA Atto647N on the N-terminal His-tag (labeled copies in FCS)

Target: the molecule itself
Assay: fluorescence correlation spectroscopy

| Protein | stoichiometry N |
| --- | --- |
| B1 | 4 |
| B2 | 4 |
